Measured values from the DeepSol protein solubility set.

Test: soluble on expression in E. coli; label from the status in PepcDB or PDB records

Sequence	soluble on expression in E. coli
MVVKEKVVNEMQEVKEMIDTLVNNGRKALQALESFTQEQIDNIVHEMALAGVDQHMPLAKLAVEETGRGVYEDKCIKNIFATEYIWHSIKKDKTVGIIHEDPHEEIIEIAEPVGVVAGVTPVTNPTSTTMFKALIAIKTRNPIIFAFHPSAQNCSVAAAKTVYDAAVKAGAPKHCIQWIEKPSVEATKQLMNHEGVALVLATGGAGMVKSAYSTGKPALGVGPGNVPCYIEKSAHIKRAVNDLILSKTFDNGMICASEQAIIVDKEIYDDVKTEMITNDCYFVTEEERRKLEKLVINENTCAVNSDIVGKSAQYIAELVGITVPKNTKMLVAEIQGIGAAYPLSREKLSPVLACVKANSLEEGFTYCEEMLNLGGLGHSAVIHSVNKEVQKQFGLRMKACRLIVNAPSSQGGIGDIYNGFIPSLTLGCGSYGKNSVSQNVTATHLLNIKRLANRKKNMQWFKLPPKIYFEKHATAYLANMPNISRAFIVTDPGMVEHGYVDTVAHYLRKHANDVKVEVFFEVEPDPSDETVFKGAEMMRSFQPDVIIALGGGSAMDAAKGMWLFYEYPETTFYGIKQKFLDIRKRTCKYPELGSKAQFVAIPTTSGTGSEVTPFAVITDKKNNIKYPLADYELTPDVAIVDPQFVMTVPPHVTADTGMDVLTHAIEAYVSVLANDYTDGLALKAIDLVFKYLPRAFKDGHDEEAREKMHNASAIAGMAFANAFLGINHSLAHKIGPEFHIPHGRANAILMPHVIRYNAIKPRKHALFPKYEHFVADERYAHIARMLGLPASSVAEGVESLDKAIIDLGKSLNINMSIAGQGVAKDQFEEVVGLLAERAFEDQCTTANPKLPLISELKEIYMKAYKGE	not soluble
MVVYDCLTDEDFLQKSEHGIGKKAIYYFYGERCPSCESIKPLFDDLCKKYEKTALVYTYPCYNDDQLTGDAFAVNAVPTFVVMNNGEEVTRHVGAEAEKVQELFEKYAV	not soluble
MVWDVETAKRFLEVIRNETIYYPVLIALHTGMRAGEIVSLKWYDVNFEARIISVVKSVRNNRGLKTSDVKTKTSKRSVYINDVLFSELKNLYETIKPKPDDFVCPRLPTGNLTVGYLSKRFKLLVKRYNFPVIRFHDLRHTFATLMLSLGVNTKIVAEILGHSDIKLTADTYSHVLPTMQESAMKEFSKLWKLEHHHHHH	soluble
MVWSAFLHFYQIGNSGSNAYYTAAAKSMAASWKAFFFAALDPAGFITVDKPPVALWLQALSVKVFGVSDFSVLLPEALAADCIRGRAVWFACAAGVLVVDARVGRDKQHDSVCRTGFASGRSGHAGCWDAGGARWALAGRAKHRAAEDGNRLRDNSSLAALVVYLEQHAGKAKYLAATIRATEAAEMMLHTDRAVMAMGGFGGTDPVLTPEKLEQMAQNGEVKYFLLSGEDRGNNELVQWIQTHCKEVPSSQWGGGQSAAIGGMGRGGMTLYVYNG	not soluble
MVYDLIVIGGGSGGMAAARRAARHNAKVALVEKSRLGGTCVNVGCVPKKIMFNAASVHDILENSRHYGFDTKFSFNLPLLVERRDKYIQRLNNIYRQNLSKDKVDLYEGTASFLSENRILIKGTKDNNNKDNGPLNEEILEGRNILIAVGNKPVFPPVKGIENTISSDEFFNIKESKKIGIVGSGYIAVELINVIKRLGIDSYIFARGNRILRKFDESVINVLENDMKKNNINIVTFADVVEIKKVSDKNLSIHLSDGRIYEHFDHVIYCVGRSPDTENLKLEKLNVETNNNYIVVDENQRTSVNNIYAVGDCCMVKKSKEIEDLNLLKLYNEERYLNKKENVTEDIFYNVQLTPVAINAGRLLADRLFLKKTRKTNYKLIPTVIFSHPPIGTIGLSEEAAIQIYGKENVKIYESKFTNLFFSVYDIEPELKEKTYLKLVCVGKDELIKGLHIIGLNADEIVQGFAVALKMNATKKDFDETIPIHPTAAEEFLTLQPWMK	soluble
MWFGEFGGQYVPETLIEPLKELEKAYKRFKDDEEFNRQLNYYLKTWAGRPTPLYYAKRLTEKIGGAKIYLKREDLVHGGAHKTNNAIGQALLAKFMGKTRLIAETGAGQHGVATAMAGALLGMKVDIYMGAEDVERQKMNVFRMKLLGANVIPVNSGSRTLKDAINEALRDWVATFEYTHYLIGSVVGPHPYPTIVRDFQSVIGREAKAQILEAEGQLPDVIVACVGGGSNAMGIFYPFVNDKKVKLVGVEAGGKGLESGKHSASLNAGQVGVFHGMLSYFLQDEEGQIKPTHSIAPGLDYPGVGPEHAYLKKIQRAEYVTVTDEEALKAFHELSRTEGIIPALESAHAVAYAMKLAKEMSRDEIIIVNLSGRGDKDLDIVLKVSGNV	soluble
MWFRNLLVYRLTQDLQLDADSLEKALGEKSARPCASQELTTYGFTAPFGKGPDAPLVHVSQDFFLISARKEERILPGSVVRDALKEKVDEIEAQQMRKVYKKERDQLKDEIVQTLLPRAFIRRSSTFAAIAPSLGLILVDSASAKKAEDLLSTLREALGSLPVRPLSVKVAPTATLTDWVKTQEAAGDFHVLDECELRDTHEDGGVVRCKRQDLTSEEIQLHLTAGKLVTQLSLAWSDKLSFVLDDKLAVKRLRFEDLLQEQAEKDGGEDALGQLDASFTLMMLTFAEFLPALFEALGGEEIPQGV	soluble
MWLSSEELSAKKTACHVRNVESNKEFADSDIVASFVHNRPKDLKNLTFERHGKGGRKKAPIFSVKGDISEHVVEVGADVNCLDEGFDFAVALVDKRTGEATYRPARFYSFESKFSEDIEKIFSDKKESSSEEYKNDFSIGAEKWAEKRRQLTSNFGSSKKIKMDEAAQRRTINQETLDEMRKTAFASNSNVKTEDGAADVKLENITMMNKAESSILPPAVQTELSRDIYPISLFLEDIEIDAIESIATELMEKKKKEKLEAGIPECVTLIMYNEKTKQRAAAYLLLSTMIEILTKMGKQRQLLRKDLSELKMPDILRQKVQAQFFNDSTNEKGYTGRGAERIRLNVTDYDRFIAHTLALALTLAPEHKVPITPFQQALSYQPSKLEKMFQALGADLIRLDVASAQTLRSLRAAILLKPPSLEQKGPRKIIRR	not soluble
MWPLLKNNVVRTGRRYAVFQPRRFTPRPQHDAFGTKDDVRGFTVFSHAACGASLMDPLSPSRWEVALFPSSPPSLKDSCHLCAWTFGLAGPCAAWLSTRRELVGGFSKIIYIQNSAECWSVRETKRCCRICRWRSTSSSTDLRSNPYPIRWCYCWTMFPPMYPVLLLTASPVPTPLEHHHHHH	not soluble
MWRELWRVVEKSDIIVQIVDARNPLLFRSKDLDDYVKEVDPAKQILLLVNKADLLKPEQQASWREYFEKENIKVIFWSAIDEVLDPIDEDAVETSNPSTSTHMFVTNKDELIAKFKELGHVSDEPSAKPVMVGMVGYPNVGKSSTINKLAGGKKVSVSATPGKTRHFQTIHIDSQLCLCDCPGLVMPSFSFGRSEMFLNGILPVDQMRDHFGPTSLLLSRVPVHVIEATYSIMLPEMQSPSAINLLNSLAFMRGFMASSGIPDCSRAARLMFKDVVSGKLIWAAAPPGVEQEEFDRISYPDKKTRDIGRVQMEKLAKLQLLEGDELKGSQFDSQHFVGSIGVAHVRDSKALPQTLGTVIPTAPTENNGKKHYKGKKDKLRRIYNE	not soluble
MWRVCARRAQNVAPWAGLEARWTALQEVPGTPRVTSRSGPAPVRRNSVTTGYGGVRALCGWTPSSGATPRNRLLLQLLGSPGRRYYSLPPHQKVPLPSLSPTMQAGTIARWEKKEGDKINEGDLIAEVETDKATVGFESLEECYMAKILVAEGTRDVPIGAIICITVGKPEDIEAFKNYTLDSSAAPTPQAAPAPTPAATASPPTPSAQAPGSSYPPHMQVLLPALSPTMTMGTVQRWEKKVGEKLSEGDLLAEIETDKATIGFEVQEEGYLAKILVPEGTRDVPLGTPLCIIVEKEADISAFADYRPTEVTDLKPQAPPPTPPPVAAVPPTPQPLAPTPSAPCPATPAGPKGRVFVSPLAKKLAVEKGIDLTQVKGTGPDGRITKKDIDSFVPSKVAPAPAAVVPPTGPGMAPVPTGVFTDIPISNIRRVIAQRLMQSKQTIPHYYLSINVNMGEVLLVRKELNKILEGRSKISVNDFIIKASALACLKVPEANSSWMDTVIRQNHVVDVSVAVSTPAGLITPIVFNAHIKGVETIANDVVSLATKAREGKLQPHEFQGGTFTISNLGMFGIKNFSAIINPPQACILAIGASEDKLVPADNEKGFDVASMMSVTLSCDHRVVDGAVGAQWLAEFRKYLEKPITMLL	soluble
MWRVVFDCEEAVRWLRQAKHTLESIRVDYEGGFYSWACFKANQAAEYSIKAVLRAAGLESFGHDLMALWRRARSLCQPLQEMEECIAVLNKLYLPPRYPDAWPGGAAPFENYTRRDAEEALECASRVYRAVEECLGEECEDS	soluble
MYDVTIIGAGVSSIFMAYSLAKSNKKVLILDKGKALEDRHCPLDEGKVCNCTTCDKYFGFGGLGKSEGKFNYTNGFGGELEKKVGKEGFLQLMAEVDEILCQFGGSSVSKYSTENSSLTKRAEACGLQMLTTEVRHLGTTLSSNIFQQLYEFLLTKIKIQFHIDVQHILKQEDHFTIDTNQGTVQTKQLVFATGRSGADWLKEMCSSLNISQEQTRVDLGIRVEMKEHQLRSILKDTFETKLSYQGEHFTATTYCMNPKGRIIRKYEEGLVMPDGQNFREQGTGTSNLNFTLFIPSYFPTLKEANVYASSIIKGINQGRDRIVIQRLEDLLKKQPTAENSMEHSRIQPTLQGDYGDLNQEIPQLYIEGLKEFLLRLEQFIQEPIDQHTLLYGIDGKFYAPTIKINNHFETSIHGLFLIGDCSGVTHSLSQAAASGLYVGKYLSDILEHHHHHH	soluble
MYEGTLSMAVQSLGQAVNYCKRFGPRLVATKMLYKLLPQAGFSVCRQIEEYLKHYYLPDVAYHKTEFCGKIQADAPIWVMWWQGEERMPDVVRLAVASMRRFAGRRPVMLITKDNYHDYAKRSVDFYRYVEHGAISLTHFSDYVRFDLLHKYGGFWLDATLLMTAPIPDFVNDLRLFSIKHGTIRPGEQWSPMWSRNWTAYCWGGCAGDPFFDFMLRFFERYHEREGSVMIDYFLIDRIISVAYQEFVDVRNTIDAIPVNNVDVLTSPIVNTASINHRSDDNGTFLHKLSWKEPPQPDCGNGQRSWFGQLLDQYGIRLEHHHHHH	not soluble
MYFSWLFLVFFSSRSLTGTPRSIDQRQLRAELSGTGTPTAPADSPALVPNCTQTRGGEDGEGCKQPRVDIKKFRKKKGAHKPQEPETLNFKFRQNLLSLKFLKERKELLVSII	not soluble
MYGISVFLGEEITNDTIIYIKKMKALGFDGIFTSLHIPEDDTSLYRQRLTDLGAIAKAEKMKIMVDISGEALKRAGFSFDELEPLIELGVTGLRMDYGITIEQMAHASHKIDIGLNASTITLEEVAELKAHQADFSRLEAWHNYYPRPETGIGTTFFNEKNRWLKELGLQVFTFVPGDGQTRGPIFAGLPTLEKHRGQNPFAAAVGLMADPYVDAVYIGDPTISERTMAQFGYYHQTNQFLLEVAPSESRYLKRILGTHTNRLDAARDVLRSELSRTSEMFRKDEIATIESEQTEARPVGTVTIDNEKYGRYMGEIQVTLVDLPKDEKVNTITRIIEKDQTILPLIKAGNQFTLVTEGTIENEFRKLNN	soluble
MYHLKKQRIMGAVKRNTLSVLFIIKKAKLLKNGEAPVCMRITVNKRVAEVMIKRSIPVDLWNQKKECSKGKDRVAIELNHYINTVRAKVLQIHRELEIDNKPITADIIKDCFYGRDKVQRSLQEVYKEHNEKCRALIGKEYTESTVIKFDTSINRLKEYIRSCYHRDDIMLAELDGQFIRDFDFWLKTEKHCQNNSALKHLKNLKKVVRIALANDWIKKDPFYGIHFKQEEVNVEFLSREELDILMNKEFAIKRLEQVRDIFVFCCFTALAFVDVQQLSREHLIKDNSGALWIRKARQKTNQMCNIPVLSIPQRILRKYEDNAECIKKGVLLPVISNQRMNAYLKEIADLCGITKRLTTHVARHTAATIVFLANDVSMENVSKILGHSNIRMTQHYAKVLDSSIMRDMVNVEKNFK	not soluble
